These results are taken from paper doi:10.1101/2023.06.19.545293.

The test addresses ZnF domain of A. thaliana SPL5 (Ser60-Leu127) (A. thaliana) (UniProt Q9S758). Put plainly: ITC.

One may read the Kd as the free concentration of one partner at which half of the binding sites on the other are occupied at equilibrium, for simple one-to-one binding. Low readings indicate a tighter complex, high ones a looser complex. In general, stoichiometry N refers to the number of molecules, sites or subunits per partner or assembly.

ZnF domain of A. thaliana SPL5 (Ser60-Leu127) (A. thaliana), sequence (Q9S758 60-127): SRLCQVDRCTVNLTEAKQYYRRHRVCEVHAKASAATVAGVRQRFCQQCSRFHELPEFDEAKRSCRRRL

With “SAP05 (mature, Ala33-Lys135) of Aster Yellows phytoplasma strain Witches Broom (natural protein)”, the Kd was 450 nM and the stoichiometry N turned out to be 1.
